From publication PMC11794430
pKd: −log10 of the molar value.

Target: HA-tagged Mincle (macrophage-inducible C-type lectin, CLEC4E) (UniProt Q9ULY5)
Test: MST

Chain of UniProt Q9ULY5 (Q9ULY5 whole entry): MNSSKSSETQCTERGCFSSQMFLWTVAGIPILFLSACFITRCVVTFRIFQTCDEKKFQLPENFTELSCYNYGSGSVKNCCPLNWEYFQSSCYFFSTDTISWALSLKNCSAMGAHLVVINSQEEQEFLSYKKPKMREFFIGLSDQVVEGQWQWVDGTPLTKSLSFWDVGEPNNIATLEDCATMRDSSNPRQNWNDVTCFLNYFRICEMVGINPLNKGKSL

Row | pKd | Substance
1 | 5.24 | Fucosylated haptoglobin purified from sepsis patients (from UniProt P00738 162-406; P00738 19-160) (natural protein)
2 | 4.64 | Haptoglobin purified from healthy controls (from UniProt P00738 162-406; P00738 19-160) (natural protein)
